Results taken from patent publication US20110027907A1 (AUCKLAND UNISERVICE, published 2011).

Molecular target: T1, recombinant SSL7 (GL1 S. aureus Greenlane), wild type (Staphylococcus aureus)
T1 construct: also called rSSL7; SET1 GL1
Assay: co-crystal structure

B1: recombinant IgA Fc (Cys242 to Pro455 of human IgA1) (other)
chain: CHPRLSLHRPALEDLLLGSEANLTCTLTGLRDASGVTFTWTPSSGKSAVQGPPERDLCGCYSVSSVLPGCAEPWNHGKTFTCTAAYPESKTPLTATLSKSGNTFRPEVHLLPPPSEELALNELVTLTCLARGFSPKDVLVRWLQGSQELPREKYLTWASRQEPSQGTTTFAVTSILRVAAEDWKKGDTFSCMVGHEALPLAFTQKTIDRLAGKP
notes: range 242-455
B1: binds.
